The source of these data is paper PMC6303335 (2018).

The experiment addresses E194, the type I interferon binding protein (IFNα/βBP) from ectromelia virus (ECTV) Naval strain (Ectromelia virus, strain Naval). The experiment is described as follows: SPR. (SPR reads the build-up and loss of mass on a sensor chip optically.)

B1: mouse IFNα subtype A (ligand)
chain: CDLPHTYNLRNKRALKVLAQMRRLPFLSCLKDRQDFGFPLEKVDNQQIQKAQAIPVLRDLTQQTLNLFTSKASSAAWNATLLDSFCNDLHQQLNDLQTCLMQQVGVQEPPLTQEDALLAVRKYFHRITVYLREKKHSPCAWEVVRAEVWRALSSSVNLLPRLSEEKE
Usually koff stands for a measure of how fast the partners let go of each other. High values mean fast dissociation, low ones slow dissociation. Turning to B1, the dissociation rate constant (koff) is 0.000331 s⁻¹.
